The target in experiment [1] is T1, extracellular domain of human CD79b fused to Fc (huCD79becd-Fc) (UniProt P40259 29-159).
T1 chain: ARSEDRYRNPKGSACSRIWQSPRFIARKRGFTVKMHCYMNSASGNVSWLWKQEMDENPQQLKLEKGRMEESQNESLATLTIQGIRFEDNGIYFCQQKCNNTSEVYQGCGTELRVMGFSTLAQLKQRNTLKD
Description: Biacore; Fab. For orientation: In SPR one partner is held on a chip, and binding of the other changes the refractive index at the surface.

Experiment [2] addresses T2, extracellular domain of human CD79b (huCD79becd) (UniProt P40259 29-159).
T2 chain: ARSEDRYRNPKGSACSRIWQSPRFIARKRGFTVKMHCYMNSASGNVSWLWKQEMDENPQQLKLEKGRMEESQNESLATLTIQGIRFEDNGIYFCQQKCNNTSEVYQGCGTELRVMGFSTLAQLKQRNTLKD
Description: Biacore; Fab.

In experiment [3] the target is T1, extracellular domain of human CD79b …. The experiment can be described thus: Biacore; IgG.
The target of experiment [4] is T3, 16 amino acid peptide containing the epitope for MA79b (ARSEDRYRNPKGSACK) (also: biotinylated (site not given here)).
T3 peptide: ARSEDRYRNPKGSACK
The experiment can be described thus: Biacore; IgG.

For experiment [5], the target named is T2, extracellular domain of human CD79b …. The experiment can be described thus: Biacore; IgG.

Where no end group is shown, it is not given here.

B1: huMA79b graft variant with HVR-L2 of SEQ ID NO: 22 (huMA79b L2-2), Fab (Fab, V domains shown)
VH: EVQLVESGGGLVQPGGSLRLSCAASGYTFSSYWIEWVRQAPGKGLEWVGEILPGGGDTNYNEIFKGRFTISADTSKNTAYLQMNSLRAEDTAVYYCTRRVPVYFDYWGQGTLVTVSS
VL: DIQMTQSPSSLSASVGDRVTITCKASQSVDYDGDSFLNWYQQKPGKAPKLLIYAARKLGRGVPSRFSGSGSGTDFTLTISSLQPEDFATYYCQQSNEDPLTFGQGTKVEIKR
One may read the Kd as the concentration at which binding is half-saturated. On to B1, for which the Kd in experiment [1] was determined as 44 nM; in experiment [2], 39 nM.

B2: MA79b-grafted humanized antibody variant L2/H3 (huMA79b L2/H3), IgG (antibody, V domains shown)
VH: EVQLVESGGGLVQPGGSLRLSCAASGYTFSSYWIEWVRQAPGKGLEWVGEILPGGGDTNYNEIFKGRFTISADTSKNTAYLQMNSLRAEDTAVYYCTRRVPIRLDYWGQGTLVTVSS
VL: DIQMTQSPSSLSASVGDRVTITCKASQSVDYDGDSFLNWYQQKPGKAPKLLIYAARKLGRGVPSRFSGSGSGTDFTLTISSLQPEDFATYYCQQSNEDPLTFGQGTKVEIKR
For B2, the Kd in experiment [3] came out at 2 nM; in experiment [4], 1 nM; in experiment [5], 3 nM.

B3: MA79b-grafted humanized antibody variant L2-2 (huMA79b L2-2), IgG (antibody, V domains shown)
VH: EVQLVESGGGLVQPGGSLRLSCAASGYTFSSYWIEWVRQAPGKGLEWVGEILPGGGDTNYNEIFKGRFTISADTSKNTAYLQMNSLRAEDTAVYYCTRRVPVYFDYWGQGTLVTVSS
VL: DIQMTQSPSSLSASVGDRVTITCKASQSVDYDGDSFLNWYQQKPGKAPKLLIYAARKLGRGVPSRFSGSGSGTDFTLTISSLQPEDFATYYCQQSNEDPLTFGQGTKVEIKR
In experiment [5], B3 yielded a Kd of 43 nM.

B4: hu MA79b H1-6 (IgG) (antibody, V domains shown)
VH: EVQLVESGGGLVQPGGSLRLSCAASGYPFTRYWINWVRQAPGKGLEWVGEILPGGGDTNYNEIFKGRFTISADTSKNTAYLQMNSLRAEDTAVYYCTRRVPVYFDYWGQGTLVTVSS
VL: DIQMTQSPSSLSASVGDRVTITCKASQSVDYDGDSFLNWYQQKPGKAPKLLIYAASNLESGVPSRFSGSGSGTDFTLTISSLQPEDFATYYCQQSNEDPLTFGQGTKVEIKR
In the case of B4, the Kd in experiment [5] was found to be 42 nM.

B5: MA79b-grafted humanized antibody (huMA79b graft), IgG (antibody, V domains shown)
VH: EVQLVESGGGLVQPGGSLRLSCAASGYTFSSYWIEWVRQAPGKGLEWVGEILPGGGDTNYNEIFKGRFTISADTSKNTAYLQMNSLRAEDTAVYYCTRRVPVYFDYWGQGTLVTVSS
VL: DIQMTQSPSSLSASVGDRVTITCKASQSVDYDGDSFLNWYQQKPGKAPKLLIYAASNLESGVPSRFSGSGSGTDFTLTISSLQPEDFATYYCQQSNEDPLTFGQGTKVEIKR
On to B5, for which the Kd in experiment [5] stood at 261 nM.

B6: hu MA79b H3-10 (IgG) (antibody, V domains shown)
VH: EVQLVESGGGLVQPGGSLRLSCAASGYTFSSYWIEWVRQAPGKGLEWVGEILPGGGDTNYNEIFKGRFTISADTSKNTAYLQMNSLRAEDTAVYYCTRRVPIRLDYWGQGTLVTVSS
VL: DIQMTQSPSSLSASVGDRVTITCKASQSVDYDGDSFLNWYQQKPGKAPKLLIYAASNLESGVPSRFSGSGSGTDFTLTISSLQPEDFATYYCQQSNEDPLTFGQGTKVEIKR
B6 yielded an equilibrium dissociation constant (Kd) in experiment [5] of 29 nM.

B7: murine anti-CD79b monoclonal antibody MA79b (antibody, V domains shown)
VH: EVQLQQSGAELMKPGASVKISCKATGYTFSSYWIEWVKQRPGHGLEWIGEILPGGGDTNYNEIFKGKATFTADTSSNTAYMQLSSLTSEDSAVYYCTRRVPVYFDYWGQGTSVTVSS
VL: DIVLTQSPASLAVSLGQRATISCKASQSVDYDGDSFLNWYQQKPGQPPKLFIYAASNLESGIPARFSGSGSGTDFTLNIHPVEEEDAATYYCQQSNEDPLTFGAGTELELKR
As to B7, the dissociation constant Kd is 2 nM in experiment [3] and 4.7 nM in experiment [5].

B8: MA79b (Fab) (antibody, V domains shown)
VH: EVQLQQSGAELMKPGASVKISCKATGYTFSSYWIEWVKQRPGHGLEWIGEILPGGGDTNYNEIFKGKATFTADTSSNTAYMQLSSLTSEDSAVYYCTRRVPVYFDYWGQGTSVTVSS
VL: DIVLTQSPASLAVSLGQRATISCKASQSVDYDGDSFLNWYQKPGQPPKLFIYAASNLESGIPARFSGSGSGTDFTLNIHPVEEEDAATYYCQQSNEDPLTFGAGTELELKR
Turning to B8, the Kd in experiment [1] is 200 nM.

The record behind these values is patent US20140335107A1 (published 2014).
